Test results as given in publication doi:10.1101/827477.

Target: BG505_mut123_N241 SOSIP (HIV-1 (subtype A, BG505)) (UniProt Q2N0S6)
Assay: negative-stain EM

B1: 13B Fab (Fab, V domains shown)
VH: LEESGGGLVQPEGSLTLTCKASGFDFSDYHVQWVRQSPGKGLEFIGGIAYTGNIYYASWAKGRFTISKTSSTTVTLQMTTLTAADTATYFCARAYGYASAPYAQYFNLWGPGTLVTVSS
VL: DIVMTQTPASVSEPVGGTVTINCQASQSRGNNYLSWYQQKPGQSPSLLIYRTSTLASGVPSRFKGSGSGTQFTLTISDLECADAATYYCLYGYYSSRNPDFAFGGGTEVVVK
B1 showed a percent of particles with no Fab bound of 57% and a percent of particles with one Fab bound of 43%.
